Results as given in US20260167728A1 (published 2026).

Key:
[1] = target: T1, huCD3e-mFc (human, UniProt P07766 23-126); experiment: Pool 3 screen
T1 construct: not shown: mFc, not described

[2] = target: T1, huCD3e-mFc; experiment: Pool 3 screen, R2

T1 sequence (P07766 23-126): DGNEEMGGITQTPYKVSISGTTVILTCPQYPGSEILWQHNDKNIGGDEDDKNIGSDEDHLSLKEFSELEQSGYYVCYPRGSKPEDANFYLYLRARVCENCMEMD

Binder	Kd [1] [nM]	Kd [2] [nM]
AC3797 (CD3.293) (scFv, V domains shown, Pool 3 format (remarks)) VH: EVQLVESGGGIVQPGGSLRLSCAASGFTFSTYAMNWVRQAPGKGLEWVGRIRTKRNNYATYYADSVKGRFTISRDDSKNTVYLQMNSLKTEDTAVYYCVRHENFGNSYVSWFAHWGQGTLVTVSS VL: ELVVTQEPSLTVSPGGTVTLTCRSSNGAVTSSNYANWVQQKPGQAPRGLIGGTNKRAPGTPARFSGSALGGKAALTLSGVQPEDEAVYYCALWYPNLWVFGGGTKLTVL	3.8	3.72
AC3659 (CD3.228) (bispecific antibody, V domains shown, Pool 2 format (remarks)) VH: EVQLVESGGGIVQPGGSLRLSCAASGFTFSTYAMNWVRQAPGKGLEWVGRIRTKRNNYATYYADSVKGRFTISRDDSKNTVYLQMNSLKTEDTAVYYCVRHENFGNSYVSWFAHWGQGTLVTVSS VL: ELVVTQEPSLTVSPGGTVTLTCRSSNGAVTSSNYANWVQQKPGQAPRGLIGGTNKRAPGTPARFSGSLLGGKAALTLSGVQPEDEAVYYCALWYPNLWVFGGGTKLTVL	5.14	
AC3798 (CD3.294) (scFv, V domains shown, Pool 3 format (remarks)) VH: EVQLVESGGGIVQPGGSLRLSCAASGFTFSTYAMNWVRQAPGKGLEWVGRIRTKRNNYATYYADSVKGRFTISRDDSKNTVYLQMNSLKTEDTAVYYCVRHENFGNSYVSWFAHWGQGTLVTVSS VL: ELVVTQEPSLTVSPGGTVTLTCRSSNGAVTSSNYANWVQQKPGQAPRGLIGGTNKRAPGTPARFSGSGLGGKAALTLSGVQPEDEAVYYCALWYPNLWVFGGGTKLTVL	3.05	5.75
AC3880 (CD3.376) (scFv, V domains shown, Pool 3 format (remarks)) VH: EVQLVESGGGIVQPGGSLRLSCAASGFTFSTYAMNWVRQAPGKGLEWVGRIRTKPNNYATYYADSVKGRFTISRDDSKNTVYLQMNSLKTEDTAVYYCVRHENFGNSYVSWFAHWGQGTLVTVSS VL: ELVVTQEPSLTVSPGGTVTLTCRSSNGAVTSSNYANWVQQKPGQAPRGLIGGTNKRAPGTPARFSGSLLGGKAALTLSGVQPEDEAVYYCALWYPNLWVFGGGTKLTVL	12.9	
AC3869 (CD3.365) (scFv, V domains shown, Pool 3 format (remarks)) VH: EVQLVESGGGIVQPGGSLRLSCAASGFTFSTYAMNWVRQAPGKGLEWVGRIRTKTNDYATYYADSVKGRFTISRDDSKNTLYLQMNSLKTEDTAVYYCVRHENFGNSYVSWFAHWGQGTLVTVSS VL: ELVVTQEPSLTVSPGGTVTLTCRSSNGAVTSSNYANWVQQKPGQAPRGLIGGTNKRAPGTPARFSGSALGGKAALTLSGVQPEDEAVYYCALWYPNLWVFGGGTKLTVL	18.8	
AC3886 (CD3.382) (scFv, V domains shown, Pool 3 format (remarks)) VH: EVQLVESGGGIVQPGGSLRLSCAASGFTFSTYAMNWVRQAPGKGLEWVGRIRTKRNNYATYYADSVKGRFTISRDDSKNTVYLQMNSLKTEDTAVYYCVRHENFGNAYVSWFAHWGQGTLVTVSS VL: ELVVTQEPSLTVSPGGTVTLTCRSSNGAVTSSNYANWVQQKPGQAPRGLIGGTNKRAPGTPARFSGSLLGGKAALTLSGVQPEDEAVYYCALWYPNLWVFGGGTKLTVL		21.2
AC3882 (CD3.378) (scFv, V domains shown, Pool 3 format (remarks)) VH: EVQLVESGGGIVQPGGSLRLSCAASGFTFSTYAMNWVRQAPGKGLEWVGRIRTKRNNYATYDADSVKGRFTISRDDSKNTVYLQMNSLKTEDTAVYYCVRHENFGNSYVSWFAHWGQGTLVTVSS VL: ELVVTQEPSLTVSPGGTVTLTCRSSNGAVTSSNYANWVQQKPGQAPRGLIGGTNKRAPGTPARFSGSLLGGKAALTLSGVQPEDEAVYYCALWYPNLWVFGGGTKLTVL	3.74	
AC3803 (CD3.299) (scFv, V domains shown, Pool 3 format (remarks)) VH: EVQLVESGGGIVQPGGSLRLSCAASGFTFSTYAMNWVRQAPGKGLEWVGRIRTKRNNYATYYADSVKGRFTISRDDSKNTVYLQMNSLKTEDTAVYYCVRHENFGNSYVSWFAHWGQGTLVTVSS VL: ELVVTQEPSLTVSPGGTVTLTCRSSNGAVTSSNYANWVQQKPGQAPRGLIGGTNKRAPGTPARFSGSLLGGKAGLTLSGVQPEDEAVYYCALWYPNLWVFGGGTKLTVL		7.96
AC3800 (CD3.296) (scFv, V domains shown, Pool 3 format (remarks)) VH: EVQLVESGGGIVQPGGSLRLSCAASGFTFSTYAMNWVRQAPGKGLEWVGRIRTKRNNYATYYADSVKGRFTISRDDSKNTVYLQMNSLKTEDTAVYYCVRHENFGNSYVSWFAHWGQGTLVTVSS VL: ELVVTQEPSLTVSPGGTVTLTCRSSNGAVTSSNYANWVQQKPGQAPRGLIGGTNKRAPGTPARFSGSLEGGKAALTLSGVQPEDEAVYYCALWYPNLWVFGGGTKLTVL	4.74	17
AC3878 (CD3.374) (scFv, V domains shown, Pool 3 format (remarks)) VH: EVQLVESGGGIVQPGGSLRLSCAASGFTFSTYAMNWVRQAPGKGLEWGGRIRTKRNNYATYYADSVKGRFTISRDDSKNTVYLQMNSLKTEDTAVYYCVRHENFGNSYVSWFAHWGQGTLVTVSS VL: ELVVTQEPSLTVSPGGTVTLTCRSSNGAVTSSNYANWVQQKPGQAPRGLIGGTNKRAPGTPARFSGSLLGGKAALTLSGVQPEDEAVYYCALWYPNLWVFGGGTKLTVL		17
AC3867 (CD3.363) (scFv, V domains shown, Pool 3 format (remarks)) VH: EVQLVESGGGIVQPGGSLRLSCAASGFTFSTYAMNWVRQAPGKGLEWVGRIRTKTNDYATYYADSVKGRFTISRDDSKNTAYLQMNSLKTEDTAVYYCVRHENFGNSYVSWFAHWGQGTLVTVSS VL: ELVVTQEPSLTVSPGGTVTLTCRSSNGAVTSSNYANWVQQKPGQAPRGLIGGTNKRAPGTPARFSGSLLEGKAALTLSGVQPEDEAVYYCALWYPNLWVFGGGTKLTVL	62.7	
AC3883 (CD3.379) (scFv, V domains shown, Pool 3 format (remarks)) VH: EVQLVESGGGIVQPGGSLRLSCAASGFTFSTYAMNWVRQAPGKGLEWVGRIRTKRNNYATYWADSVKGRFTISRDDSKNTVYLQMNSLKTEDTAVYYCVRHENFGNSYVSWFAHWGQGTLVTVSS VL: ELVVTQEPSLTVSPGGTVTLTCRSSNGAVTSSNYANWVQQKPGQAPRGLIGGTNKRAPGTPARFSGSLLGGKAALTLSGVQPEDEAVYYCALWYPNLWVFGGGTKLTVL	4.19	
AC3884 (CD3.380) (scFv, V domains shown, Pool 3 format (remarks)) VH: EVQLVESGGGIVQPGGSLRLSCAASGFTFSTYAMNWVRQAPGKGLEWVGRIRTKRNNYTTYYADSVKGRFTISRDDSKNTVYLQMNSLKTEDTAVYYCVRHENFGNSYVSWFAHWGQGTLVTVSS VL: ELVVTQEPSLTVSPGGTVTLTCRSSNGAVTSSNYANWVQQKPGQAPRGLIGGTNKRAPGTPARFSGSLLGGKAALTLSGVQPEDEAVYYCALWYPNLWVFGGGTKLTVL	4.54	
AC3660 (CD3.229) (bispecific antibody, V domains shown, Pool 2 format (remarks)) VH: EVQLVESGGGIVQPGGSLRLSCAASGFTFNTYAMNWVRQAPGKGLEWVGRIRTKTNNYATYYADSVKGRFTISRDDSKNTVYLQMNSLKTEDTAVYYCVRHENFGNSYVSWFAHWGQGTLVTVSS VL: ELVVTQEPSLTVSPGGTVTLTCRSSNGAVTSSNYANWVQQKPGQAPRGLIGGTNKRAPGTPARFSGSLLGGKAALTLSGVQPEDEAVYYCALWYPNLWVFGGGTKLTVL	13.6	
AC3877 (CD3.373) (scFv, V domains shown, Pool 3 format (remarks)) VH: EVQLVESGGGIVQPGGSLRLSCAASGFTFSTYAMNWVRQAPGKGLEDVGRIRTKRNNYATYYADSVKGRFTISRDDSKNTVYLQMNSLKTEDTAVYYCVRHENFGNSYVSWFAHWGQGTLVTVSS VL: ELVVTQEPSLTVSPGGTVTLTCRSSNGAVTSSNYANWVQQKPGQAPRGLIGGTNKRAPGTPARFSGSLLGGKAALTLSGVQPEDEAVYYCALWYPNLWVFGGGTKLTVL	8.92	
